Reference: US20220259284A1, “CA2 COMPOSITIONS AND METHODS FOR TUNABLE REGULATION” (Obsidian Therapeutics, Inc., priority 2019, published 2022)

What was measured:
[1] = test system: CD40L constructs regulated by Carbonic anhydrase DDs in T cells; experiment: Acetazolamide dose response of CD40L expression in transduced T cells, FACS (MFI, % CD40L positive); type: cell-based, human; details: for CD40L MFI / Percentage CD40L positive cells: 24 hours; for CD40L MFI: FACS
Experimental: (§1) CD40L constructs regulated by Carbonic anhydrase DDs were generated and cloned into lentiviral vectors. Purified T cells were thawed and cultured with aCD3 aCD28 Dynabeads (in the ratio of 3 beads to 1 T cell).
The constructs were transduced in T cells the next day. […] 24 hours after the addition of ligand T cells were stained for CD40L expression and analyzed using FACS.

[2] = test system: CD40L constructs regulated by Carbonic anhydrase DDs in T cells; experiment: Time course regulation of CD40L in transduced T cells, FACS (MFI, % CD40L positive); type: cell-based, human; details: constitutive CD40L
Experimental: as §1
A control of empty vector (EV) and constitutive CD40L (OT-001661; amino acid SEQ ID NO. 6067 and nucleic acid SEQ ID NO. 6068) was also evaluated. Cells were fixed at 2, 4, 6, 8, 24, and 48 hours and then T cells were stained for CD40L expression and analyzed using FACS. The results are shown as median fluorescence intensity in Table 12 and as percentage CD40L positive cells in Table 13.

[3] = test system: CA2 regulated CD40L in activated T cells; experiment: Regulation of CD40L in T cells by CA2, percent of cells expressing CD40L (surface expression); type: cell-based, human; details: ligand N/A
Experimental: To test regulation, activated T cells were lentivirally transduced with CA2 regulated CD40L (OT-001990) and a control of CD40L (OT-001661). Two days later, cells were treated with vehicle or […] ligand for 24h as described in Table 14 after which they were analyzed for CD40L surface expression. In the table, “Acz” is Acetazolamide.

[4] = test system: monocyte derived dendritic cells (DCs), Nalm6; experiment: IFNg and IL-12 in supernatant of DC + Nalm6 + CAR+ T cell co-culture, MSD; type: cell-based; details: DC + T cells + Nalm6, no ligand stated, supernatant 24 hours
Experimental: To measure the effect of CD40L expression that is tuned by the biocircuits of the present disclosure in the context of CARs, T cells expressing any of the CA2 CD40L-CAR constructs described herein were co-cultured with monocyte derived dendritic cells (DCs).
In vitro cultures were set up by adding 1×10^4 DCs into culture with 1×10^5 Nalm6 and 1×10^5 CAR+ T cells. […] Supernatants were collected 24 hours later and analyzed for IFNg and IL-12 by MSD assay. OT-001661 (SEQ ID NO. 6067; encoded by SEQ ID NO. 6068), that expressed CD40L payloads constitutively was used as control.

CD40L in HEK293T cells = experiment: Soluble CD40L (shedding) in medium of transfected HEK293T cells, ELISA; type: cell-based, human; details: HEK293T cell culture medium, no ligand stated, Repeat 1
[5] = test system: CA2 regulated CD40L in activated T cells; experiment: Regulation of CD40L in T cells by CA2, percent of cells expressing CD40L (surface expression); type: cell-based, human; details: All Cells, ligand N/A

For `CC(=O)Nc1nnc(S(N)(=O)=O)s1` [Acetazolamide], the “CD40L MFI” value ([1]; CD4+ T cells with CA2 DD CD40L construct (OT-001990), Acetazolamide 0.01 μM) was 112, the “Percentage CD40L positive cells” value ([1]; CD4+ T cells with CA2 DD regulated CD40L construct, Acetazolamide 0.01 μM) was 4.13% and the “Percentage CD40L positive cells” value ([1]; CD4+ T cells with CA2 DD regulated CD40L construct, Acetazolamide 0.05 μM) was 5.44%. For the same molecule, the “Percentage CD40L positive cells” value ([1]; CD4+ T cells with CA2 DD regulated CD40L construct, Acetazolamide 0.2 μM) was 10.3%, the “Percentage CD40L positive cells” value ([1]; CD4+ T cells with CA2 DD regulated CD40L construct, Acetazolamide 0.8 μM) was 45.6% and the “Percentage CD40L positive cells” value ([1]; CD4+ T cells with CA2 DD regulated CD40L construct, Acetazolamide 3.1 μM) was 69.3%. The “Percentage CD40L positive cells” value ([1]; CD4+ T cells with CA2 DD regulated CD40L construct, Acetazolamide 12.5 μM) was 90.3%, the “Percentage CD40L positive cells” value ([1]; CD4+ T cells with CA2 DD regulated CD40L construct, Acetazolamide 50 μM) was 91.1% and the “CD40L MFI” value ([1]; CD4+ T cells, Acetazolamide 0.2 μM) was 185. For the same molecule, the “CD40L MFI” value ([1]; CD4+ T cells, Acetazolamide 0.8 μM) was 481, the “CD40L MFI” value ([1]; CD4+ T cells, Acetazolamide 3.1 μM) was 840 and the “CD40L MFI” value ([1]; CD4+ T cells, Acetazolamide 12.5 μM) was 2783. The “CD40L MFI” value ([1]; CD4+ T cells, Acetazolamide 50 μM) was 3728, the “amount of Acetazolamide required to achieve stabilization of CD40L” value ([1]; CD4+ and CD8+ T cells) was “within the level of the ligand that can be achieved in humans” and the “CD40L MFI” value ([1]; CD8+ T cells with CA2 DD CD40L construct (OT-001990), Acetazolamide 0.01 μM) was 105. For the same molecule, the “Percentage CD40L positive cells” value ([1]; CD8+ T cells with CA2 DD regulated CD40L construct, Acetazolamide 0.01 μM) was 0.59%, the “Percentage CD40L positive cells” value ([1]; CD8+ T cells with CA2 DD regulated CD40L construct, Acetazolamide 0.05 μM) was 0.44% and the “Percentage CD40L positive cells” value ([1]; CD8+ T cells with CA2 DD regulated CD40L construct, Acetazolamide 0.2 μM) was 1.48%. For the same molecule, the “Percentage CD40L positive cells” value ([1]; CD8+ T cells with CA2 DD regulated CD40L construct, Acetazolamide 0.8 μM) was 25.2%, the “Percentage CD40L positive cells” value ([1]; CD8+ T cells with CA2 DD regulated CD40L construct, Acetazolamide 3.1 μM) was 41.2% and the “Percentage CD40L positive cells” value ([1]; CD8+ T cells with CA2 DD regulated CD40L construct, Acetazolamide 12.5 μM) was 77.2%. The “Percentage CD40L positive cells” value ([1]; CD8+ T cells with CA2 DD regulated CD40L construct, Acetazolamide 50 μM) was 80.7%, the “CD40L MFI” value ([1]; CD8+ T cells, Acetazolamide 0.05 μM) was 104 and the “CD40L MFI” value ([1]; CD8+ T cells, Acetazolamide 0.2 μM) was 136. The “CD40L MFI” value ([1]; CD8+ T cells, Acetazolamide 0.8 μM) was 307, the “CD40L MFI” value ([1]; CD8+ T cells, Acetazolamide 3.1 μM) was 380 and the “CD40L MFI” value ([1]; CD8+ T cells, Acetazolamide 12.5 μM) was 1599. For the same molecule, the “CD40L MFI” value ([1]; CD8+ T cells, Acetazolamide 50 μM) was 2184.

B1: OT-001661: constitutive CD40L control; amino acid SEQ ID NO. 6067 and nucleic acid SEQ ID NO. 6068 (protein)
chain: MHMIETYNQTSPRSAATGLPISMKIFMYLLTVFLITQMIGSALFAVYLHRRLDKIEDERNLHEDFVFMKTIQRCNTGERSLSLLNCEEIKSQFEGFVKDIMLNKEETKKENSFEMQKGDQNPQIAAHVISEASSKTTSVLQWAEKGYYTMSNNLVTLENGKQLTVKRQGLYYIYAQVTFCSNREASSQAPFIASLCLKSPGRFERILLRAANTHSSAKPCGQQSIHLGGVFELQPGASVFVNVTDPSQVSHGTGFTSFGLLKL
notes: constitutive CD40L control; 6068
With B1 the “CD40L MFI” value ([2]; CD4+ T cells, 2 hours) was 4042, the “Percentage CD40L positive cells” value ([2]; CD4+ T cells, 2 hours) was 72.8% and the “CD40L MFI” value ([2]; CD4+ T cells, 4 hours) was 4651. For the same molecule, the “Percentage CD40L positive cells” value ([2]; CD4+ T cells, 4 hours) was 77%, the “CD40L MFI” value ([2]; CD4+ T cells, 6 hours) was 3156 and the “Percentage CD40L positive cells” value ([2]; CD4+ T cells, 6 hours) was 67.2%. The “CD40L MFI” value ([2]; CD4+ T cells, 24 hours) was 9491, the “Percentage CD40L positive cells” value ([2]; CD4+ T cells, 24 hours) was 93.3% and the “CD40L MFI” value ([2]; CD4+ T cells, 48 hours) was 5639. For the same molecule, the “Percentage CD40L positive cells” value ([2]; CD4+ T cells, 48 hours) was 88.5%, the “CD40L MFI” value ([2]; CD8+ T cells, 2 hours) was 2212 and the “Percentage CD40L positive cells” value ([2]; CD8+ T cells, 2 hours) was 56.9%. The “CD40L MFI” value ([2]; CD8+ T cells, 4 hours) was 2994, the “Percentage CD40L positive cells” value ([2]; CD8+ T cells, 4 hours) was 63.2% and the “CD40L MFI” value ([2]; CD8+ T cells, 6 hours) was 1773. For the same molecule, the “Percentage CD40L positive cells” value ([2]; CD8+ T cells, 6 hours) was 48.5%, the “CD40L MFI” value ([2]; CD8+ T cells, 24 hours) was 3563 and the “Percentage CD40L positive cells” value ([2]; CD8+ T cells, 24 hours) was 71.2%. For the same molecule, the “CD40L MFI” value ([2]; CD8+ T cells, 48 hours) was 2313, the “Percentage CD40L positive cells” value ([2]; CD8+ T cells, 48 hours) was 71.1% and the MFI ([3]; All Cells) was 20451. For the same molecule, the CD40L positive ([3]; CD4+ T cells) was 98.7%, the MFI ([3]; CD4+ T cells) was 24489 and the CD40L positive ([3]; CD8+ T cells) was 97.8%. The MFI ([3]; CD8+ T cells) was 14352, the IFNg [4] was 1579.21 pg/mL and the IL12 [4] was 58.88 pg/mL. For the same molecule, the sCD40L (CD40L in HEK293T cells) was 2900 pg/mL and the CD40L positive [5] was 98%.
